Where a chain is given by its changes, count along the chain named.
B1: 368_A01 (antibody, V domains shown)
VH: EVQLLESGGGLVQPGGSLRLSCAASGFTFSSYGMNWVRQAPGKGLEWVSNINYNGGYTSYADSVKGRFTISRDNSKNTLYLQMNSLRAEDTAVYYCARSANWHDTALDYWGQGTLVTVSS
VL: DIQMTQSPSSLSASVGDRVTITCRASQSIISYLNWYQQKPGKAPKLLIYAATSRHSGVPSRFSGSGSGTDFTLTISSLQPEDFATYYCQQSYDNPLTFGGGTKVEIK
B2: 369_F03 (antibody, V domains shown)
VH: B1 VH with S31D, N50G, G55S
VL: B1 VL with I30V, L33V, R54L, H55A, N94S
B3: 368_H04 (antibody, V domains shown)
VH: B1 VH with G33S, S49A, N50G, G55S, T58K, S59G, R98K, A106H
VL: B1 VL with I30V, L33V, H55A, N94S
B4: 369_C03 (antibody, V domains shown)
VH: B1 VH with T58K
VL: B1 VL with I30L, S31T, L47V, H55A, N94S
B5: 368_G12 (antibody, V domains shown)
VH: B1 VH with S49A, N50S, G55S, S59G
VL: B1 VL with I30S, L33V, L47V, A51V, H55A, D93E, N94T
B6: 368_E04 (antibody, V domains shown)
VH: B1 VH with G33S, S49A, G55S, S59G
VL: B1 VL with I30L, L33V
B7: 368_F11 (antibody, V domains shown)
VH: B1 VH with S31D, N50G, A106H
VL: B1 VL with I30V, L33V, L47V, H55A, D93N
B8: 369_F02 (antibody, V domains shown)
VH: B1 VH with S49A, N50S, G55S, T58K
VL: B1 VL with I30V, L47V, H55A, N94T
B9: 369_D02 (antibody, V domains shown)
VH: B1 VH with S31D, G33S, G55S, S59G
VL: B1 VL with I30L, L47V, A51V, H55A, N94T
B10: 368_A09 (antibody, V domains shown)
VH: B1 VH with S30D, G33S, N50G, A106H
VL: B1 VL with I30L, L33V, A51V, H55A, N94S
B11: 368_F03 (antibody, V domains shown)
VH: B1 VH with S30D, G33S, S49A, N50G, G55S, S59G, R98K
VL: B1 VL with L47V, N94S
B12: 369_D12 (antibody, V domains shown)
VH: B1 VH with S30D, G33S, S49A, N50G, G55S
VL: B1 VL with I30L, R54L, H55A, N94T
B13: 368_G01 (antibody, V domains shown)
VH: B1 VH with S31D, N35H, S49A, N50S, G55S
VL: B1 VL with I30L, S31T, L47V, H55A, D93N, N94L
B14: 368_D05 (antibody, V domains shown)
VH: B1 VH with G33S, N50G
VL: B1 VL with I30L, S31T, L47V, H55A, Y92D, N94S
B15: 369_F01 (antibody, V domains shown)
VH: B1 VH with N50G, T58K
VL: B1 VL with I30L, S31T, L33V, H55A, D93E, N94L
B16: 368_B01 (antibody, V domains shown)
VH: B1 VH with N50G, G55S, T58K
VL: B1 VL with I30S, H55A, D93E, N94T
B17: 369_B01 (antibody, V domains shown)
VH: B1 VH with G33S, N50G
VL: B1 VL with I30L, A51V, H55A, D93E
B18: 368_C05 (antibody, V domains shown)
VH: B1 VH with S30D, N50G, G55S
VL: B1 VL with I30L, L47V, H55A, Y92D, D93S
B19: 369_F06 (antibody, V domains shown)
VH: B1 VH with S30D, S31D, G33S, S49A, N50G, T58K, S59G
VL: B1 VL with I30V, L33V, L47V, H55A, N94S
B20: 368_E06 (antibody, V domains shown)
VH: B1 VH with S31D, N35H, N50G, S59G
VL: B1 VL with I30L, L47V, A50G, H55A, N94S
B21: 369_A02 (antibody, V domains shown)
VH: B1 VH with G33S, S49A, N50G, G55S, S59G, A106H
VL: B1 VL with I30L, L33V, H55A, N94L
B22: 369_D04 (antibody, V domains shown)
VH: B1 VH with S30D, N50G
VL: B1 VL with I30L, L33V, L47V, H55A, D93N, N94L
B23: 369_E12 (antibody, V domains shown)
VH: B1 VH with N35H, S49A, N50S, G55S
VL: B1 VL with H55A, D93E, N94S
B24: 368_D11 (antibody, V domains shown)
VH: B1 VH with S30D, S31D, T58K
VL: B1 VL with I30L, S31T, L47V, H55A, N94L
B25: 368_E07 (antibody, V domains shown)
VH: B1 VH with S49A, N50G, R98K
VL: B1 VL with I30L, A51V, H55A, D93E
B26: 368_D04 (antibody, V domains shown)
VH: B1 VH with N50G, T58K
VL: B1 VL with I30S, S31T, L33V, L47V, A51V, N94S
B27: 368_A05 (antibody, V domains shown)
VH: B1 VH with G33S, S49A, N50G, G55S, S59G
VL: B1 VL with I30V, L47V, H55A, N94S
B28: 368_E01 (antibody, V domains shown)
VH: B1 VH with G33S, S49A, N50S, G55S, S59G, A106H
VL: B1 VL with I30L, A51V, D93S, N94L
B29: 369_C04 (antibody, V domains shown)
VH: B1 VH with G33S, S59G
VL: B1 VL with I30L, S31T, L33V, A50T, A51T, R54L, D93N
B30: 369_E11 (antibody, V domains shown)
VH: B1 VH
VL: B1 VL with R54L, H55A, N94T
B31: 368_A07 (antibody, V domains shown)
VH: B1 VH with G33S, S49A, N50G, G55S, A106H
VL: B1 VL with I30L, S31T, L47V, A51T, H55A, Y92N, D93E, N94L
B32: 369_C02 (antibody, V domains shown)
VH: B1 VH with S30D, G33S, T58K
VL: B1 VL with I30L, S31T, L47V, H55A, D93E, N94L
B33: 368_D01 (antibody, V domains shown)
VH: B1 VH with N35H, S49A
VL: B1 VL with I30L, L47V, H55A, Y92D, D93S, N94T
B34: 369_E02 (antibody, V domains shown)
VH: B1 VH with S30D, S59G
VL: B1 VL with I30V, L33V, A51T

Biological target: Human Fc (human)
Assay: ELISA, negative control

optical density [OD]	Binder
0.396	B1
0.389	B2
0.319	B3
0.323	B4
0.341	B5
0.32	B6
0.338	B7
0.478	B8
0.407	B9
0.277	B10
0.323	B11
0.425	B12
0.431	B13
0.282	B14
0.554	B15
0.365	B16
0.487	B17

optical density [OD]	Binder
0.246	B18
0.353	B19
0.325	B20
0.383	B21
0.435	B22
0.452	B23
0.297	B24
0.251	B25
0.338	B26
0.285	B27
0.392	B28
0.248	B29
0.343	B30
0.261	B31
0.369	B32
0.319	B33
0.365	B34
